Source: PMC5296606, “A Ferredoxin- and F420H2-Dependent, Electron-Bifurcating, Heterodisulfide Reductase with Homologs in the Domains Bacteria and Archaea” (mBio, 2017)

Legend:
Type in all cases: biochemical, Methanosarcina acetivorans
[1] = substrate: O=S(=O)(O)CCS; test: reverse heterodisulfide reductase assay; details: co-substrate HSCoB, 21 °C
[2] = substrate: C[C@@H](OP(=O)(O)O)[C@H](NC(=O)CCCCCCS)C(=O)O; test: reverse heterodisulfide reductase assay; details: co-substrate HSCoM, 21 °C
[3] = substrate: C[C@@H](OP(=O)(O)O)[C@H](NC(=O)CCCCCCSSCCS(=O)(=O)O)C(=O)O; test: forward heterodisulfide reductase assay with reduced methyl viologen; details: reduced methyl viologen as electron donor, 21 °C, HdrA2 + HdrB2C2, no ferredoxin
Source text: forward heterodisulfide reductase assay with reduced methyl viologen on HdrA2B2C2

B1: HdrB2C2 (Methanosarcina acetivorans C2A) (protein)
chain: MAKLSLFRGCIVPNRYPGIEKATKLCLQKLEVDAVDLPGASCCPAPGVFKSFDKATWLALASRNIVLSERMGRDILTVCNGCYGSLADANIELKNDPEMKACTNSCLKEIGMEYKGTAEVRHIIEFLYKELGPEKLKSFITTPLDLKVALHYGCHLIKPSKERNLGETEAPVFFDELVEATGAKSVDYTDKMMCCGAGGGVRSGHAAESLEMLEHKLACIRNAGVDCIVNACPFCHLQFDRGQLAVNEKFGTDYSIPVLHYSQLLGLALGFSPDELGIEQNAIQNIEFLAKIYEISAGLR
notes: with Heterodisulfide reductase subunit C2 (CoB--CoM heterodisulfide reductase iron-sulfur subunit C 2)
For B1, the Km ([1]; no HdrA2) was 1400 ± 200 µM, the Vmax ([1]; no HdrA2) was 0.6 µmol/min/mg and the Km ([2]; no HdrA2) was 1200 ± 200 µM.

B2: HdrA2B2C2 (Methanosarcina acetivorans C2A) (protein)
chain: B1 chain
notes: complex reconstituted by mixing recombinant HdrA2 (C-terminal His6) with copurified HdrB2C2 (His6 on HdrB2); with Heterodisulfide reductase subunit C2 (CoB--CoM heterodisulfide reductase iron-sulfur subunit C 2); H(2)/F420-type heterodisulfide reductase subunit A2 (CoB--CoM heterodisulfide reductase iron-sulfur subunit A 2; HdrA-MvhD fusion)
B2 showed a Km [3] of 50 ± 10 µM and a Vmax [3] of 2.2 µmol/min/mg.

B3: HdrB2 (Methanosarcina acetivorans C2A) (protein)
chain: B1 chain
In the case of B3, the Km ([1]; HdrB2 alone) is reported as 1200 ± 300 µM, the Vmax ([1]; HdrB2 alone) is reported as 0.5 µmol/min/mg and the Km ([2]; HdrB2 alone) is reported as 1100 ± 200 µM.
